The source of these data is ChEMBL document CHEMBL1157347, “Chemoenzymatic syntheses of prenylated aromatic small molecules using Streptomyces prenyltransferases with relaxed substrate specificities” (Bioorg Med Chem, 2008).

The target in series [1] is T1, Prenyltransferase homolog (Streptomyces coelicolor A3) (UniProt Q9FBZ2).
T1 sequence (whole entry): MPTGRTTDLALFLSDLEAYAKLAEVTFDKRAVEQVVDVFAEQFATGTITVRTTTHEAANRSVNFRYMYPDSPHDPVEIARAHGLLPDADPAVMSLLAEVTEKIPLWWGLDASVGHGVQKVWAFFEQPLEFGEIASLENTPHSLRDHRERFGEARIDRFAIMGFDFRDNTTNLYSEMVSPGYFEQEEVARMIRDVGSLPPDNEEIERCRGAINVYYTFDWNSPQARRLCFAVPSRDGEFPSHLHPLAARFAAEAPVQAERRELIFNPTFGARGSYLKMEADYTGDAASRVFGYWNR
In words: Ratio of Kcat to Km of Streptomyces coelicolor A3(2) prenyltransferase assessed as formation of 6-(3,7-Dimethyl-octa-2,6-dienyl)-5,7-dihydroxy-2-(4-hydroxy-phenyl)-chroman-4-one.

Series [2] deals with T1, Prenyltransferase homolog (Streptomyces coelicolor A3). Description: Ratio of Kcat to Km of Streptomyces coelicolor A3(2) prenyltransferase assessed as formation of 7-(3,7-Dimethyl-octa-2,6-dienyloxy)-5-hydroxy-2-(4-hydroxy-phenyl)-chroman-4-one.
For series [3], the system named is NphB prenyltransferase (Streptomyces sp. CL190). In words: Ratio of Kcat to Km of Streptomyces sp. CL190 NphB prenyltransferase assessed as formation of 2-(3,7-dimethylocta-2,6-dienyl)naphthalene-1,6-diol.
The test system is the same in series [4]. Description: Ratio of Kcat to Km of Streptomyces sp. CL190 NphB prenyltransferase assessed as formation of 5-(3,7-dimethylocta-2,6-dienyl)naphthalene-1,6-diol.
Series [5] has the same test system. In words: Ratio of Kcat to Km of Streptomyces sp. CL190 NphB prenyltransferase assessed as formation of 4-(3,7-dimethylocta-2,6-dienyl)naphthalene-1,6-diol.
Series [6] has as its target NphB prenyltransferase (Streptomyces sp. CL190). In words: Activity for Streptomyces sp. CL190 NphB prenyltransferase assessed as formation of 7-(3,7-dimethylocta-2,6-dienyloxy)-3-(4-hydroxyphenyl)-2,3-dihydrochromen-4-one.
Substrate in series [7]: O=C1C[C@@H](c2ccc(O)cc2)Oc2cc(O)cc(O)c21
In words: Activity for Streptomyces coelicolor A3(2) prenyltransferase assessed as formation of 6-(3,7-Dimethyl-octa-2,6-dienyl)-5,7-dihydroxy-2-(4-hydroxy-phenyl)-chroman-4-one.

The target of series [8] is NphB prenyltransferase (Streptomyces sp. CL190). In words: Activity for Streptomyces sp. CL190 NphB prenyltransferase assessed as formation of 2-(3,7-dimethylocta-2,6-dienyl)-5-pentylbenzene-1,3-diol.
Substrate in series [9]: O=C1C[C@@H](c2ccc(O)cc2)Oc2cc(O)cc(O)c21
In words: Activity for Streptomyces coelicolor A3(2) prenyltransferase assessed as formation of 7-(3,7-Dimethyl-octa-2,6-dienyloxy)-5-hydroxy-2-(4-hydroxy-phenyl)-chroman-4-one.

Series [10] addresses NphB prenyltransferase (Streptomyces sp. CL190). Description: Activity for Streptomyces sp. CL190 prenyltransferase NphB assessed as formation of 7-(3,7-Dimethyl-octa-2,6-dienyloxy)-5-hydroxy-2-(4-hydroxy-phenyl)-chromen-4-one.
Series [11] shares this target. In words: Activity for Streptomyces sp. CL190 NphB prenyltransferase assessed as formation of 4-(3,7-dimethylocta-2,6-dienyl)naphthalene-1,6-diol.
Series [12] shares this target. In words: Activity for Streptomyces sp. CL190 NphB prenyltransferase assessed as formation of 5-(4-hydroxystyryl)-2-((E)-3,7-dimethylocta-2,6-dienyl)benzene-1,3-diol.
Series [13] shares this target. Description: Activity for Streptomyces sp. CL190 NphB prenyltransferase assessed as formation of 4-(3,7-dimethylocta-2,6-dienyl)-5-pentylbenzene-1,3-diol.
For series [14] the target is unchanged. In words: Activity for Streptomyces sp. CL190 prenyltransferase NphB assessed as formation of 1-(3,7-dimethylocta-2,6-dienyl)naphthalene-2,7-diol.
Series [15] has the same target. In words: Activity for Streptomyces sp. CL190 prenyltransferase NphB assessed as formation of 2-(3,7-dimethylocta-2,6-dienyl)naphthalene-1,6-diol.
Series [16] has the same target. In words: Activity for Streptomyces sp. CL190 prenyltransferase NphB assessed as formation of 5-(3,7-dimethylocta-2,6-dienyl)naphthalene-1,6-diol.
Series [17] shares this target. Description: Activity for Streptomyces sp. CL190 prenyltransferase NphB assessed as formation of 7-(3,7-dimethylocta-2,6-dienyloxy)-5-hydroxy-3-(4-hydroxyphenyl)-2,3-dihydrochromen-4-one.
Series [18] has the same target. In words: Activity for Streptomyces sp. CL190 prenyltransferase NphB assessed as formation of 6-(3,7-Dimethyl-octa-2,6-dienyl)-5,7-dihydroxy-2-(4-hydroxy-phenyl)-chromen-4-one.

Broadly, the Km is the concentration of substrate that gives half-maximal velocity. As usually defined, the kcat is the number of substrate molecules converted per active site and unit of time at saturation.

For `O=C1C[C@@H](c2ccc(O)cc2)Oc2cc(O)cc(O)c21`, the Ratio in series [1] was found to be 0.31; in [2], 1.4.
For the molecule `Oc1ccc2c(O)cccc2c1`, the Ratio in [3] was 2.2; in series [4] it was 7.7; in [5], 0.3.

B1: Prenyltransferase homolog (Streptomyces coelicolor A3), Q9FBZ2 (protein)
chain: MPTGRTTDLALFLSDLEAYAKLAEVTFDKRAVEQVVDVFAEQFATGTITVRTTTHEAANRSVNFRYMYPDSPHDPVEIARAHGLLPDADPAVMSLLAEVTEKIPLWWGLDASVGHGVQKVWAFFEQPLEFGEIASLENTPHSLRDHRERFGEARIDRFAIMGFDFRDNTTNLYSEMVSPGYFEQEEVARMIRDVGSLPPDNEEIERCRGAINVYYTFDWNSPQARRLCFAVPSRDGEFPSHLHPLAARFAAEAPVQAERRELIFNPTFGARGSYLKMEADYTGDAASRVFGYWNR
In the case of B1, the Km is 290 µM in series [6]; 2100 µM in series [7]; 520 µM in [8]; 1600 µM in [9]; 580 µM in series [10]; 1050 µM in series [11]. For the same molecule, the Michaelis constant (Km) in series [12] was determined as 440 µM; in series [13] it was 640 µM; in [14] it was 340 µM; in series [15], 510 µM; in series [16], 540 µM; in series [17], 330 µM. Besides, the Km in series [18] came to 530 µM. Besides, the kcat in series [6] stood at 0.00017 s⁻¹; in series [8], 2.7e-05 s⁻¹; in series [10] it was 0.00033 s⁻¹; in series [11], 0.00032 s⁻¹; in series [12], 5.3e-05 s⁻¹; in [13], 4.3e-05 s⁻¹. The kcat in [14] was determined as 0.00047 s⁻¹; in series [15], 0.0011 s⁻¹; in series [16], 0.0042 s⁻¹; in series [17] it was 0.00048 s⁻¹; in series [18] it was 0.0006 s⁻¹.
